Bounds are passed on as bounds.

Holding throughout (conditions): remark: other sources report otherwise
The target of experiment [1] is EBOV GPddmuc (Ebola virus (EBOV)), Q05320.
For experiment [2], the target named is MARV GPddmuc (Marburg virus (MARV)), P35253.
Experiment [3] deals with SUDV GPddmuc (Sudan virus (SUDV)), Q66814.

B1: murine monoclonal antibody 2D8 (antibody, V domains shown)
VH: EVQLQESGGELVRPGTSVKISCKASGYTFTNFWLGWIKERPGHGLEWIGDIYPGGHYTNYNENFKGKATLTADTSSNTAYMQVSSLTSEDSAVYFCFTQYYDMDYWGQGTSVTVSS
VL: not shown
In the case of B1, the values for the 50% effective concentration (EC50) in experiment [1], in experiment [2] and in experiment [3] were 26.2 µg/mL, 0.0573 µg/mL and greater than 10 µg/mL, respectively.

B2: murine monoclonal antibody 21B2 (antibody, V domains shown)
VH: EVQLQESGAELVRPGASVTLSCKTSGYTFTDYEMHWVKQTPVHGLEWIGAIDPETGGTAYNQKFKGKATLTADKSSSTAYMELSRLTSEDSAVYYCTGNYATDYWGQGTSVTVSS
VL: DIVMSQSPSSLAVSAGEKVTMSCKSSQSLFNSRSRKNYLAWYQLKPGQSPKLLIYWASTRESGVPDRFTGSGSGTDFTLTISSVQAEDLAVYYCKQSNYLWTFGGGTKLEIKR
As for B2, the figures for the EC50 in experiment [1] and in experiment [2] were greater than 10 µg/mL and 0.0307 µg/mL, respectively.

B3: murine monoclonal antibody 16G8 (antibody, V domains shown)
VH: EVQLQESGPGLVKPGASVKISCKASGYSFTGYYMNWVKQSPEKSLEWIGEINPSTGGTTYNQKFKAKATLTVDKSSSTAYMQLKSLTSEDSAVYYCVRYSHYYGSGSWYFDVWGTGTTVTVSS
VL: DIQMTQSPASLSASVGETVTITCRASENIYSNLAWYQQKQGKSPQLLVNAATNLADGVPSRFSGSGSGTQFSLKINSLQPEDFGSYYCQHFYVTPYMFGSGTKLEIKR
As for B3, the EC50 (in general, the concentration at which the effect is half-maximal) is 1.23 µg/mL in experiment [1] and 0.22 µg/mL in experiment [3].

B4: murine monoclonal antibody 8C4 (antibody, V domains shown)
VH: EVQLQESGPELKKPGETVKISCKASGYTFTTYGMSWVKQAPGKGLKWMGRINTYSGVPTYADEFKGRFAFSLENSASTAYLQINNLKNEDTATYFCARGDGGHWFANWGQGTLVTVSA
VL: DIQMTQSPSSLSASLGGKVTITCKASQDINKNIAWYQHKPGKGPRLLIWYKSALQPGIPSRFSGSGSGRDYSFSISNLEPEDIATYSCLQYDNLPPTFGGGTKLEIKR
For B4, the EC50 is 0.21 µg/mL in experiment [1] and 0.06 µg/mL in experiment [3].

B5: murine monoclonal antibody 17C6 (antibody, V domains shown)
VH: EVQLQESGPGLVQPSQSLSITCTVSGFSLTSYGVHWVRQSPGKGLEWLGVIWSGGSTDYNAAFISRLSISKDNSKSQVFFKMNSLQADDTAIYYCARNWFDYDNYYSMDYWGQGTSVTVSS
VL: DIQMTQTTSSLSASLGDRVTISCRASQDISNYLNWYQQKPDGTVKLLIYYTSRLHSGVPSRFSGSGSGTDFSLTISNQEPEDIATYYCQQYSNLPWTFGGGTKLEIKR
As for B5, the EC50 in experiment [1] and in experiment [3] was 0.03 µg/mL throughout.

The values are drawn from patent publication US20180237502A1.
